Source: US20040170955A1 (University of Texas, published 2004)
Ends that are not written are not given here.

B1: Fyn-phosphorylated phage displaying RAILYRLAN (SEQ ID NO:116) (peptide)
peptide: RAILYRLAN
modifications: not fully specified (residue 5); also: displayed on phage
notes: whole phage tested
B2: CPRECESIC (SEQ ID NO:123) soluble cyclic peptide (peptide)
peptide: CPRECESIC
modifications: disulfide (positions not given here); not fully specified; also: disulfide positions not determined, mixture of six MS species, possibly dimers

What was measured:
[1] = biological target: T1, GST-β3cyto (GST fusion protein of the β3 integrin cytoplasmic domain) (UniProt P05106 742-788); experiment: phosphorylated phage binding, β3 colonies / BSA colonies
T1 construct: domain: cytoplasmic domain; Recombinant GST fusion coated on microtiter wells; also called β3-GST; β3 cytoplasmic domain fusion protein; not shown: glutathione S-transferase (GST) fusion partner
T1 sequence (P05106 742-788): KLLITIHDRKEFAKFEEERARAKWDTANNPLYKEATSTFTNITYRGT
Experimental: (§1) Phosphorylation of peptide libraries with src family protein kinases (Fyn, c-Src, Lyn, and Syc) and serine/threonine kinases such as a MAP kinase were performed as described previously (Schmitz et al., 1996; Dente et al., 1997; Gram et al., 1997). Briefly, phage particles were collected from culture supernatants by double precipitation with 20% polyethylene glycol 8000 in 2.5 M NaCl. Particles were dissolved at 10¹² particles/ml. Purified phage (10 μl) were incubated for 3 hours at room temperature with different concentrations (35 to 3,500 units) of protein kinases in a reaction buffer volume of 50 μl. The reaction mixtures were transferred to tubes containing 10 μg of agarose-conjugated anti-P-Tyr, anti-P-Ser, or anti-P-Thr monoclonal antibodies to select phage displaying phosphorylated peptides. Bound phage were eluted by washing the column with 0.3 ml of elution buffer (0.1 M NaCl/glycine/1 mg/ml BSA, pH 2.35). The eluates were neutralized with 2 M Tris-base and incubated with 2 ml of a mid-log bacteria culture.
(§2) Amino acid sequences of the phagemid encoded peptides were deduced from nucleotide sequences.

[2] = biological target: T1, GST-β3cyto (GST fusion protein of the …); experiment: phosphorylated phage binding, β3 colonies / GST colonies
Experimental: as §1, §2

[3] = biological target: T1, GST-β3cyto (GST fusion protein of the …); experiment: phage binding to β3, colonies with Fyn-phosphorylated phage / unphosphorylated phage
Experimental: as §1, §2

[4] = biological target: Aminopeptidase A (APA, EC 3.4.11.7) on SK-RC-49/APA cells (UniProt Q07075 1-957, limits assumed); experiment: cell-based or functional assay
Sequence of Aminopeptidase A (APA, EC 3.4.11.7) on SK-RC-49/APA cells (Q07075 whole entry): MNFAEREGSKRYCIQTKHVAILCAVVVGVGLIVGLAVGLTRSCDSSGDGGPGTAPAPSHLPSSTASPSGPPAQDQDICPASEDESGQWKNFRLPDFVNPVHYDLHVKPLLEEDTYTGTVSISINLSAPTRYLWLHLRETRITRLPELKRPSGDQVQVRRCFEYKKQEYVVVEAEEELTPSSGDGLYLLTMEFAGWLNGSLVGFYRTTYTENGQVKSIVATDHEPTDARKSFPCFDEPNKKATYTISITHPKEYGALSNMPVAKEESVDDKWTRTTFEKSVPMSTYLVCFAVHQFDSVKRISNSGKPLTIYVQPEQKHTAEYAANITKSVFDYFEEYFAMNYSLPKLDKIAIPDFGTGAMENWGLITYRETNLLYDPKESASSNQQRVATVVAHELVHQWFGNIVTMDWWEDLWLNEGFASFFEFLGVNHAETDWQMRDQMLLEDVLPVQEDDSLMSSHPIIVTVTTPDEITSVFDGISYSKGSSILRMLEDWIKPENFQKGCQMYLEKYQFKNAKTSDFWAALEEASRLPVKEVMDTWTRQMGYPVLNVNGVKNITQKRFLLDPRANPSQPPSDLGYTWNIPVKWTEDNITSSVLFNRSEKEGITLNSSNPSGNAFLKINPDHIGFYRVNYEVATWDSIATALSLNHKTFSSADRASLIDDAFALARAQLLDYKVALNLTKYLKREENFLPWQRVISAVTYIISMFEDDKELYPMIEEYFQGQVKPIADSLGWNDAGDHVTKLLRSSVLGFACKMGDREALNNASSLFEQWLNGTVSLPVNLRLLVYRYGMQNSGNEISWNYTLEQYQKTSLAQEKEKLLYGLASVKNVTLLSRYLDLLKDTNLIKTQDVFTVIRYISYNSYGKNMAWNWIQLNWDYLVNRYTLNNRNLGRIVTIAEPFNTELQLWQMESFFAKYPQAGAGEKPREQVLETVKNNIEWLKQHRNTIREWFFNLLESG

| Binder | β3 or β5/BSA [1] | β3 or β5/GST [2] | Phos/Unphos [3] | IC50 for APA enzyme inhibition (α-glutamyl-p-nitroanilide, colorimetric, SK-RC49/APA cells) [4] |
| --- | --- | --- | --- | --- |
| B1 | 20 ratio | 1.3 ratio | 2.8 ratio | – |
| B2 | – | – | – | 800 µM |
